Test results published in patent US20040063641A1, “Use of growth hormone or a growth hormone secretagogue for promoting bone formation” (priority 1996, published 2004).

B1: GH: recombinant porcine growth hormone (r-pGH), homologous GH given by daily injection to mini-pigs (protein, UniProt P01248 27-216, looked up)
Somatotropin: FPAMPLSSLFANAVLRAQHLHQLAADTYKEFERAYIPEGQRYSIQNAQAAFCFSETIPAPTGKDEAQQRSDVELLRFSLLLIQSWLGPVQFLSRVFTNSLVFGTSDRVYEKLKDLEEGIQALMRELEDGSPRAGQILKQTYDKFDTNLRSDDALLKNYGLLSCFKKDLHKAETYLRVMKCRRFVESSCAF
B2: cST: canine somatotropin, given to dogs in the cited study of Buonomo et al. (protein, UniProt P33711 27-216, looked up)
Somatotropin: B1 Somatotropin

How the values were obtained:
[1] = tested on: distracted tibia (bone regenerate); assay: Mechanical torsion testing of distracted tibia after callus distraction in mini-pigs; assay type: in vivo, Yucatan mini-pigs; conditions: r-pGH 100 μg/kg daily injection
Method: After sacrifice, the right and left limb were dissected. The soft tissue around the joints was removed, and the ends of the tibia were casted in Beracryl. The constructs were placed in a materials testing machine (Zwick, Ulm, Germany), and torsional moments were applied. Resulting displacements and torsional moments were recorded. The test was conducted with a speed of 30° per minute until failure. The system automatically terminated the test at a torque of […]. The final bone torsional strength of a mini-pig group treated with growth hormone was investigated relative to a control group. 30 mature female Yucatan mini-pigs were equally distributed into two treatment groups. Mini-pigs in the study group received a daily injection of recombinant porcine growth hormone (r-pGH: 100 μg/kg), the mini-pigs in the control group received sodium chloride as placebo. The left tibiae and fibulae were osteotomized and stabilized with an external fixator. Full weight bearing was permitted. The legs were distracted twice daily at 2 mm/day for 10 days and then allowed to consolidate for 10 days. After sacrifice, torsional moments were applied to the distracted and the contralateral tibia in a material testing machine and the maximum torsional moment was determined. Four animals were removed from the study due to bone infection or surgery failure and data of 2 animals were lost due to test machine failure. A t-test was used to determine differences in maximum torsional moments between the treatment groups.

healing fracture = conditions: dogs treated with cST; no distraction; cited from earlier work

Molecule	maximum torsional moment in comparison to the intact contralateral tibia ([1]; at sacrifice, p<0.001 vs control) [%]	maximum torsional moment ([1]; distracted tibia at sacrifice, mean±SD, p=0.001 vs placebo) [Nm]	maximum torsional moment, higher than that of the placebo group ([1]; distraction 2 mm/day for 10 days, consolidation 10 days, at sacrifice, p=0.001) [%]	increase of stiffness of the healing fracture as compared to non-treated dogs (healing fracture) [fold]	increase of strength of the healing fracture as compared to non-treated dogs (healing fracture) [fold]
B1	64±22.4	19.5±7.8	131		
B2				5	3
